Measured values published in patent publication US8551951B2, “Pharmaceutical preparations and methods for inhibiting tumors” (Aenorasis SA Pharmaceuticals and Medical Devices, priority 2000, dated 2013).
Several values for one entry are separate records, joined by “and”; a condition that tells them apart may be missing. Identical values can stand only once.

How the values were obtained:
[1] = test system: human prostate cancer cells PC-3; test: MTS assay, growth inhibitory effect on PC-3 cells; type: cell-based; conditions: for % Viability (control = 100%): 72 hours
Source text: Cell proliferation was monitored on PC-3 cells using the MTS/PMS (phenazine methosulfate) kit (Promega), which primarily measures mitochondrial activity of live cells. The basic principle of this method involves the fact that the mitochondrial enzymes of the live cells metabolize the MTS/PMS dyes forming a brown colored precipitate which can be measured as optical density (OD) by absorption at 490 nm in a spectrophotometer. Therefore, the OD values are proportional to the number of living cells. In addition, monitoring of cell morphology was also performed. Cell morphology would be indicative of their health status. For example, viable cells would appear adherent and spread out whereas dead cells would be in suspension in the media and would appear granular and round.
PC-3 cells (ATCC, Lot AT06) used in these experiments were at a passage number lower or equal to 70 (n≧70). Cells were seeded in Costar 96 well cell culture flat bottom plates in RPMI supplemented media containing 50 μg/ml of bovine serum albumin (BSA) and 0.1 μM FeSO4. Peptide was diluted in the same media. Cells were continuously exposed to the polypeptides of the present invention for 72 hours without changing media. Native PSP94 or rHuPSP94 concentrated two fold were directly added to wells and diluted to 1× in order to minimize cell manipulation and avoid detachment.
Native PSP94, rHuPSP94, polypeptide 22-36 and PB111 polypeptide (scrambled polypeptide) were also included in this experiment as controls. Cell proliferation assay was performed on either PC-3 cells or normal fibroblasts (used here as control) using the MTS/PMS kit (Promega). Four thousand cells (FIGS. 9 and 10) or three thousand (FIG. 11) cells were seeded in Costar 96 well cell culture flat bottom plates in RPMI supplemented media containing 50 μg/ml of bovine serum albumin (BSA) and 0.1 μM FeSO4. In addition, monitoring of cell morphology was also performed.
This assay measures the mitochondrial activity of the live cells. The basic principle of this method involves the fact that the mitochondrial enzymes of the live cells metabolize the MTS/PMS dyes forming a brown colored precipitate which can be measured as optical density (OD) by absorption at 490 nm in a spectrophotometer. Therefore, the OD values are proportional to the number of living cells.
In addition, a visual observation of the cells was also done to check the cell morphology, which could also be indicative of cell growth. The following conditions for MTS assay were used: PC-3 (ATCC, Lot AT06), passage number n≧70, cell line adapted to grow in serum-free OPTI-MEM and in RPMI supplemented with BSA (50 μg/ml) and Ferrous Sulfate (0.1 μM), continuous exposure for up to 72 hours without changing media (i.e., adding PCK3145 at 2× concentration directly to wells and diluting it 1:2 to 1× to minimize cell manipulation and avoid detachment).

PC-3 cells [2] = test: [^3H]-Thymidine uptake assay; type: cell-based, human; conditions: for ^3[H]-Thymidine Uptake (% of control): 72 hours
Method: The in vitro growth inhibition effect of rHuPSP94 was assessed using [^3H]-Thymidine uptake assay. [^3H]-Thymidine uptake assay involves [^3H]-Thymidine incorporation into cellular DNA of actively proliferating cells. It measures the proliferative index of the cells versus the MTS assay, which quantifies the number of lived cells following treatment. Cells were seeded in Costar 96 well cell culture flat bottom plates in RPMI supplemented media containing 50 μg/ml of bovine serum albumin (BSA) and 0.1 μM FeSO4. PC-3 cells were exposed to various concentrations of rHuPSP94 for 72 hours and during the final 16 hours of incubation cells were pulsed with 1 μCi of [^3H]-Thymidine. The radioactivity in each well of the plate is counted by a beta-counter and is expressed as total counts per minutes (cpm). Results of in vitro effect of rHuPSP94 on PC-3 cells using the ^3[H]-Thymidine uptake assay are summarized in Table 3 and are expressed as percentage of radioactivity measured for treated-cells relative to the radioactivity measured for non-treated cells (for which [^3H]-thymidine uptake value was set at 100%).
[^3H]-Thymidine uptake assay involves [^3H]-Thymidine incorporation into cellular DNA of actively proliferating cells. [^3H]-Thymidine uptake assay measures the proliferative index of the cells versus the MTS assay, which quantifies the number of lived cells following treatment. The anti-proliferative effects of PCK3145 and two other synthetic polypeptides derived from the amino and carboxy terminus ends of PSP94 (SEQ ID NO: 4 and NO: 6, respectively) as well as the decapeptide (SEQ ID NO: 3) previously shown to mimic the biological action of native PSP94 were assessed in [H3]-Thymidine uptake assay on PC-3 cells. Two separate experiments were conducted with GMP-grade PCK3145.

Mat Ly Lu (MLL) tumor [3] = test: Study MLL-1, Mat LyLu tumor implanted in nude mice; type: in vivo; conditions: 1 μg/kg/day s.c.; p=0.042
Method: (§1) Studies MLL-1 and MLL-2 were performed as follows; on day 0, male Copenhagen rats were injected subcutaneously with 5×10^5 Mat LyLu cells per rat. These cells were derived from cultures of Mat LyLu cell line grown in RPMI media containing 10% (v/v) of fetal calf serum in logarithmic phase of growth. Cells were harvested from the culture flasks by trypsinization, were centrifuged at 1200 rotation per minute (rpm) and washed three timed with Hanks balanced salt solution (HBSS). Following washing, cells were counted and adjusted to a concentration of 5×10^6 cells/ml in HBSS. A 0.1 ml volume of tumor cell inoculum containing 5×10^5 cells was administered subcutaneously into the flank region of each rat. Three days after tumor cell implantation (i.e., inoculation), animals were treated daily by a subcutaneous injection of the desired polypeptide until day 13.
Experiments illustrated in FIG. 12 show the anti-tumor efficacy validation of rHuPSP94 against Mat LyLu (MLL) tumor implanted in nude mice (Protocol based on S. Garde et al.; The Prostate, 22: 225-233, 1993).
For study MLL-1 (FIG. 12), tumor-implanted nude mice were separated in different groups, each receiving various amount of rHuPSP94 or control reagents. The different groups used in these experiments are illustrated below. Each group contained 8 mice.

Mat Ly Lu (MLL) tumor [4] = test: Study MLL-2, Mat Ly Lu tumor implanted in SCID mice; type: in vivo; conditions: 1 μg/kg/day s.c.; p=0.010
Method: as §1
Experiments illustrated in study MLL-2 show the anti-tumor efficacy validation of rHuPSP94 against Mat Ly Lu (MLL) tumor implanted in severe combined immunodeficiency (SCID) mice (Protocol based on S. Garde et al.; The Prostate, 22: 225-233, 1993).
For study MLL-2 (FIG. 13), tumor-implanted Scid mice were separated in different groups each receiving various amounts of rHuPSP94 or control reagents. The different groups used in these experiments are illustrated below. Each group contained 8 mice.

[5] = test system: PC-3 human prostate tumor; test: PC-3 human prostate tumor in nude mice, subcutaneous treatment for 14 days (Examples 10 and 11); type: in vivo, Nude mouse; conditions: 1 μg/kg body weight per day s.c.
Method: PC-3 human prostate tumor was obtained from ATCC (ATCC 1435). PC-3 cells were grown in RPMI media containing 10% (v/v) of fetal calf serum and were harvested in the logarithmic phase of growth by trypsinization. Cells were centrifuged at 1200 rotation per minute (rpm) and washed three timed with Hanks balanced salt solution (HBSS). Following washing, cells were counted and adjusted to a concentration of 1×10^7 cells/ml in HBSS. A 0.1 ml volume of tumor cell inoculum containing 1×10^6 cells was administered subcutaneously into the two opposite flank region of each Nude mouse (Nu/Nu, BALE/c background). Tumor growth was monitored for approximately 18 days. Once tumor growth has been established (volume of tumor reached a volume of 50 mm^3) treatment with rHuPSP94 (SEQ ID NO: 2) was initiated and was performed once a day for 14 days by the subcutaneous route. Based on the assigned treatment groups illustrated in table 4.
PC-3 human prostate tumor (ATCC 1435) obtained from ATCC was implanted bilaterally into nude mice and tumor growth was monitored for approximately 18 days. PC-3 cells were injected once subcutaneously into each flank of the mice. Once tumor growth has been established (i.e., volume of tumor reached 0.25 to 0.50 cm^3) the treatment with decapeptide (SEQ ID NO: 3), native PSP94 (SEQ ID NO: 1) and control scrambled polypeptide PB111 was initiated and was performed once a day for 14 days by the subcutaneous route based on the treatment groups (randomly assigned) illustrated in table 5.

PC-3 cells [6] = test: DNA fragmentation assay (DNA ladder, apoptosis); type: cell-based, human
Method: Cell apoptosis result in DNA fragmentation can be evaluated by the presence of a DNA ladder visualized when DNA is run on a 1.2% agarose gel. DNA ladder assay (apoptosis assay) was performed following exposure of PC-3 to various concentrations of the polypeptides for 72 hours. The polypeptides that were used in this particular experiment are polypeptide 7-21 (SEQ ID NO: 4), polypeptide PCK3145 (SEQ ID NO: 5) and polypeptide 76-94 (SEQ ID NO: 6). […] This effect was especially evident following treatment with PCK3145 (SEQ ID NO: 5), which is illustrated by FIG. 7. Lane 1 of the gel illustrated in FIG. 7 represents a lambda HindIII digest standard.
Apoptosis of PC-3 cells, following a 72 hours exposure to PCK3145 at 500 μg/ml concentration, was evaluated in supplemented media by DNA fragmentation assay. Doxorubicin was used as a reference positive control. Untreated cells and PCK3145-treated cells were harvested and the DNA was isolated. Isolated DNA was run on a 1.2% agarose gel containing Ethidium Bromide (EtBr). […] Lane 1 of the gel illustrated in FIG. 25 represents the DNA marker (100 base pair DNA ladder). Lane 2 of the gel illustrated in FIG. 25 represents a control of untreated PC-3 cells.

tumor cells = conditions: exogenous PSP94, in vivo and in vitro; cited from earlier work
[7] = test system: follicle-stimulating hormone (FSH); conditions: in-vitro and in-vivo in adult male rats; cited from earlier work

B1: rHuPSP94: recombinant human PSP94 expressed in yeast (Pichia pastoris), non-glycosylated, 10 cysteine residues, SEQ ID NO: 2 (protein)
chain: EAEAYVEFSCYFIPNEGVPGDSTRKCMDLKGNKHPINSEWQTDNCETCTCYETEISCCTLVSTPVGYDKDNCQRIFKKEDCKYIVVEKKDPKKTCSVSEWII
modifications: recombinant human PSP94 (rHuPSP94) produced from yeast
- % Viability (control = 100%) ([1]; 5 μg/ml): 98% and 92% and 89%
- % Viability (control = 100%) ([1]; 10 μg/ml): 84% and 95% and 69%
- % Viability (control = 100%) ([1]; 20 μg/ml): 78% and 80% and 79%
- % Viability (control = 100%) ([1]; 40 μg/ml): 100% and 70% and 71% and 68% and 72% and 63% and 95%
- % Viability (control = 100%) ([1]; 60 μg/ml): 98% and 78% and 63% and 85% and 52%
- reduction in cell numbers (i.e., viability) ([1]; 80 μg/ml): 37% and 35%
- % Viability (control = 100%) ([1]; 80 μg/ml): 90% and 55% and 59% and 58% and 63% and 78% and 62%
- reduction in cell numbers (i.e., viability) ([1]; 120 μg/ml): 57%
- % Viability (control = 100%) ([1]; 120 μg/ml): 52% and 43% and 68% and 60%
- ^3[H]-Thymidine Uptake (% of control) (PC-3 cells [2]; 5 μg/ml): 94 % of control
- ^3[H]-Thymidine Uptake (% of control) (PC-3 cells [2]; 10 μg/ml): 101 % of control
- ^3[H]-Thymidine Uptake (% of control) (PC-3 cells [2]; 20 μg/ml): 98 % of control
- ^3[H]-Thymidine Uptake (% of control) (PC-3 cells [2]; 40 μg/ml): 79 % of control
- reduction in the percentage of cells incorporating [^3H]-thymidine (PC-3 cells [2]; 80 μg/ml for 72 hrs, compared to non-treated control): 65%
- ^3[H]-Thymidine Uptake (% of control) (PC-3 cells [2]; 80 μg/ml): 35 % of control
- tumor weight reduction (Mat Ly Lu (MLL) tumor [3]): 26%
- tumor weight reduction (Mat Ly Lu (MLL) tumor [4]): 65%
- tumor growth (tumor volume) [5]: tumor growth reduction
- tumor growth reduction compared with Doxorubicin (5 mg/kg/day) [5]: reduction was similar to that observed for Doxorubicin

B2: native PSP94: Prostate Secretory Protein of 94 amino acids, native human seminal plasma protein, SEQ ID NO: 1 (protein)
chain: SCYFIPNEGVPGDSTRKCMDLKGNKHPINSEWQTDNCETCTCYETEISCCTLVSTPVGYDKDNCQRIFKKEDCKYIVVEKKDPKKTCSVSEWII
- ^3[H]-Thymidine Uptake (% of control) (PC-3 cells [2]; 5 μg/ml): 97 % of control
- ^3[H]-Thymidine Uptake (% of control) (PC-3 cells [2]; 10 μg/ml): 98 % of control
- ^3[H]-Thymidine Uptake (% of control) (PC-3 cells [2]; 20 μg/ml): 100 % of control
- ^3[H]-Thymidine Uptake (% of control) (PC-3 cells [2]; 40 μg/ml): 98 % of control
- ^3[H]-Thymidine Uptake (% of control) (PC-3 cells [2]; 80 μg/ml): 77 % of control
- reduction in the [H3]-Thymidine uptake (PC-3 cells [2]; 72 hours exposure (FIG. 24)): ~50%
- DNA laddering effect (FIG. 7 lane 4) (PC-3 cells [6]; 20 μg): DNA laddering effect
- DNA laddering effect (FIG. 7 lane 3) (PC-3 cells [6]; 40 μg): DNA laddering effect
- effect on tumor cell growth (tumor cells): inhibitory effect
- secretion of circulating FSH [7]: suppress secretion of
